Experimental data reported in patent US20210238271A1 (Janssen / Centocor, published 2021).
Residue numbers refer to the chain shown, from its start. Numbers in names are those of the source.

Legend:
recombinant human TNFα [1] = molecular target: T1, recombinant human TNFα (human, UniProt P01375 77-233, 125I label in the receptor-blocking assay only); assay: competition: 125I-TNFα (5 ng/ml) preincubated with hybridoma supernatant, then bound to plate-coated p55-sf2, gamma counting; blocked partner p55-sf2
T1 construct: also called huTNFα; tumor necrosis factor alpha
Method: Varying amounts of hybridoma cell supernatants containing known amounts of TNV mAb were preincubated with a fixed concentration (5 ng/ml) of ¹²⁵I-labeled TNFα. […] Although eight TNV mAb samples were tested in these experiments, for simplicity three of the mAbs that were shown by DNA sequence analyses to be identical to one of the other TNV mAbs (see Section 5.2.2) are not shown here. Each sample was tested in duplicate. The results shown are representative of two independent experiments.
(§1) Assay for Inhibition of TNF Binding to Receptor. […] Serial dilutions of the eight TNV cell supernatants were prepared in 96-well round-bottom plates using PBS/0.1% BSA as diluent. […] The mixture was preincubated for one hour at RT. […] After 2 hrs at RT, Optiplates were washed three times with PBS-Tween. […] of Microscint-20 was added and the cpm bound determined using the TopCount gamma counter.
A simple binding assay was done to determine whether the eight TNV mAbs contained in hybridoma cell supernatant were capable of blocking TNFα binding to receptor.

recombinant human TNFα [2] = molecular target: T1, recombinant human TNFα; assay: inhibition of 125I-TNFα binding to plate-coated p55-sf2, hybridoma supernatants
Method: as §1
A simple binding assay was done to determine whether the eight TNV mAbs contained in hybridoma cell supernatant were capable of blocking TNFα binding to receptor. The concentrations of the TNV mAbs in their respective cell supernatants were first determined by standard ELISA analysis for human IgG.

recombinant human TNFα [3] = molecular target: T1, recombinant human TNFα; assay: cell-based or functional assay
human lymphotoxin = molecular target: T2, human lymphotoxin (human, UniProt P01374 35-205, limits assumed); assay: not described
T2 sequence (looked up): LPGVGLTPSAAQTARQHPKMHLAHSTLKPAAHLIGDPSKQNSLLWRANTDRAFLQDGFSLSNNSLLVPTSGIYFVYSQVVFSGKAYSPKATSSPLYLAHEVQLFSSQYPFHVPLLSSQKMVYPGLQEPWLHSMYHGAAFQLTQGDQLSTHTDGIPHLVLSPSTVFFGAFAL

B1: GenTNV148.26.12 (antibody, human IgG1, kappa, V domains shown)
VH: QVQLVESGGGVVQPGRSLRLSCAASGFIFSSYAMHWVRQAPGNGLEWVAFMSYDGSNKKYADSVKGRFTISRDNPKNTLYLQMNSLRAEDTAVYYCARDRGIAAGGNYYYYGMDVWGQGTTVTVSS
VL: EIVLTQSPATLSLSPGERATLSCRASQSVYSYLAWYQQKPGQAPRLLIYDASNRATGIPARFSGSGSGTDFTLTISSLEPEDFAVYYCQQRSNWPPFTFGPGTKVDIKR
notes: Totally human IgG1 kappa from hybridoma, tested as hybridoma supernatant; also called C420A
IC50 (read off the curve) (recombinant human TNFα [1]): ~4 ng/mL
fold better at blocking TNF binding than TNV118 and TNV14 (recombinant human TNFα [2]): ~4 fold
neutralizing TNFα bioactivity (recombinant human TNFα [3]): 4 fold

B2: GenTNV86.14.34 (antibody, human IgG1, kappa, V domains shown)
VH: B1 VH
VL: B1 VL
notes: Totally human IgG1 kappa from hybridoma, tested as hybridoma supernatant; Only the variable regions were compared; also called C417A
fold better at blocking TNF binding than TNV118 and TNV14 (recombinant human TNFα [2]): ~4 fold

B3: golimumab (antibody, human IgG1, kappa, V domains shown)
VH: B1 VH with P75S
VL: B1 VL
notes: Fully human IgG1 (G1m[z] allotype), kappa; also called SIMPONI
binding result (human lymphotoxin): no binding
